US20180371451A1 (BOARD OF TRUSTEES OF THE UNIVERSITY OF ILLINOIS, published 2018)
Values belong to the binder of their own block, whether it stands above or below them.

Assays:
Experiment in all cases: specificity test of the expressed monobodies (method not named)
[1] = molecular target: human Cyclin-Dependent Kinase 2 (human, UniProt P24941 1-298)
BSA = BSA (UniProt P02769 25-607)
CDC34 = molecular target: T1, CDC34 (UniProt P49427 1-236, limits assumed)
T1 sequence (looked up): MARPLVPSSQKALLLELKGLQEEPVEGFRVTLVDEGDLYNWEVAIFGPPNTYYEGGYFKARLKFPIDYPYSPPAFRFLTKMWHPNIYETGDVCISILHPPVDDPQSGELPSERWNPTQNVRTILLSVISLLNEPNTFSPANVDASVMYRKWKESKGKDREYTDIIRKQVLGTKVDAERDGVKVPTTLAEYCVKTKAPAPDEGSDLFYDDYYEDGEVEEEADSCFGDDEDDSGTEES

Sequence of BSA (P02769 25-607 limits assumed): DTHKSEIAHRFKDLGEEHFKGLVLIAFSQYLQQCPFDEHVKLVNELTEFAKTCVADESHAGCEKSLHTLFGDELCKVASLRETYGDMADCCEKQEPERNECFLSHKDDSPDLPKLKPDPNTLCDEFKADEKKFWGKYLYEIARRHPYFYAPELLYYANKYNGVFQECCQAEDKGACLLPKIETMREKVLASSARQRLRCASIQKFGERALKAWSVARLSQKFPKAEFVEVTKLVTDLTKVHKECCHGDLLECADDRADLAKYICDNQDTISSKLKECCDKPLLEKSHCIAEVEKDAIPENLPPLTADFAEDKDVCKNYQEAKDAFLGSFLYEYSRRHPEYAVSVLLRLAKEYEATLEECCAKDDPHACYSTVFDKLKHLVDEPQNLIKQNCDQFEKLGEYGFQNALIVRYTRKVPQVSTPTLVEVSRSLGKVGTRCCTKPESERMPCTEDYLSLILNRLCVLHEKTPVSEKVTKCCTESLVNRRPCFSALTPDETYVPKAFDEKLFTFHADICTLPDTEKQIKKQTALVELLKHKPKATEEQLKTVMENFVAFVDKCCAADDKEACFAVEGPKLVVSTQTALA

binding result [1]: no binding
binding result (BSA): no binding
binding result (CDC34): no binding
B1: anti-MAP2K5 FN3 monobody clone G4 (designed binder)
chain: MAVSDVPRKLEVVAATPTSLLISWDQDQVYYYRIRYGETGGNSPVQEFTVPGSKSTATISGLKPGVDYTITVYAVTGTSYAYIISINYRI
notes: FN3 (tenth type III domain of fibronectin) monobody from the PExSR selection; It was cloned into the pET14b-SUMO E. coli expression vector (SUMO fusion, purified on His60 resin) for characterisation; also called anti-MAP2K5 clone G4

binding result [1]: no binding
binding result (BSA): no binding
binding result (CDC34): no binding
B2: anti-MAP2K5 FN3 monobody clone H1 (designed binder)
chain: MAVSDVPRKLEVVAATPTSLLISWDPYWFSGLYYRITYGETGGNSPVQEFTVPGSKSTATISGLKPGVDYTITVYAVTYYSWGYLVGEIISINYRI
notes: FN3 monobody from the PExSR selection; For the specificity test it was expressed as a SUMO fusion from pET14b-SUMO; also called Anti-MAP2K5 H1
